This note sets out measurements from doi:10.1101/322404, “Discovery of a novel stereospecific β-hydroxyacyl-CoA lyase/thioesterase shared by three metabolic pathways in Mycobacterium tuberculosis” (bioRxiv, 2018).

The series concerns the molecule itself. Briefly: crystal structure.

B1: Mycobacterium tuberculosis Rv2498c, β-hydroxyacyl-CoA lyase/thioesterase (enzyme)
chain: MNLRAAGPGWLFCPADRPERFAKAAAAADVVILDLEDGVAEAQKPAARNALRDTPLDPERTVVRINAGGTADQARDLEALAGTAYTTVMLPKAESAAQVIELAPRDVIALVETARGAVCAAEIAAADPTVGMMWGAEDLIATLGGSSSRRADGAYRDVARHVRSTILLAASAFGRLALDAVHLDILDVEGLQEEARDAAAVGFDVTVCIHPSQIPVVRKAYRPSHEKLAWARRVLAASRSERGAFAFEGQMVDSPVLTHAETMLRRAGEATSE
notes: also called β-HAClyase/thioesterase; CitE-like
For the protein B1, the “stoichiometry N” value worked out at 3.
